Data published in patent US20240352117A1.

Target: natural TSLP
Assay: cell-based or functional assay

- IC50 of inhibiting STAT5 phosphorylation in SW756-STAT5-Luciferase reporter gene cells induced by natural TSLP: 1.45 ng/mL
Substance: Tezepelumab (antibody)
